Test results taken from patent US20160311919A1 (CELLDEX THERAPEUTICS, published 2016).
“And” between values parts separate entries of the source, which are not always exact repeats. Equal values may be shown once. Each block holds one binder with its values, some of them ahead of it.

Legend:
[1] = target: T1, GPNMB (CG56972), native full-length protein on the cell surface or in cell lysates (human, UniProt Q14956 23-492); experiment: cell-based or functional assay
T1 sequence: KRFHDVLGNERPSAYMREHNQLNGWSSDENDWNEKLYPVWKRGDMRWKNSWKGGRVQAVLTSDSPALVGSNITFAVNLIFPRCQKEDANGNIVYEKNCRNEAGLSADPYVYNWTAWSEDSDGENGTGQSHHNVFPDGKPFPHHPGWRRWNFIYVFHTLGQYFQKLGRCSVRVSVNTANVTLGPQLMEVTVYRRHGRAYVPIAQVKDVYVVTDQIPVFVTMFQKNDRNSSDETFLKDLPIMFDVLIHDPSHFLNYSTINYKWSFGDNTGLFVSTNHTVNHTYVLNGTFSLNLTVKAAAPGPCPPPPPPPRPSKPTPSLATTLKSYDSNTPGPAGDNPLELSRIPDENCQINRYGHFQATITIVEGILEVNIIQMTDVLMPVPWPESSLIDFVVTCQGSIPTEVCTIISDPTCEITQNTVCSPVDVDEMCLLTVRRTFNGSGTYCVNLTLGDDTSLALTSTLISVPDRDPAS

[2] = target: T1, GPNMB (CG56972), native full-length …; experiment: FACS, UACC-62 cells, Ab 1 ug/mL
Method: Cells were washed twice with PBS (Ca and Mg free), incubated with Versene at 37° C. until cells detached, counted and aliquoted at 1 million cells per assay tube. Cells were then washed twice and resuspended in ice-cold FACS buffer (0.01M HEPES, 0.15M NaCl, 0.1% NaN₃ and 4% FBS). Primary antibody at 1 μg/mL was added to the cells. Cells were incubated on ice for 30 min, washed 2-3 times and resuspended in 1 mL of ice-cold FACS buffer. R-PE-conjugated goat anti-human antibody (Jackson ImmunoResearch Laboratory) at 1:100 dilution was added and cells were incubated on ice for 30 min. After washing 3 times with 1 mL of ice-cold FACS buffer, cells were fixed with 0.5-1 mL of 1% formaldehyde in PBS and analyzed by flow cytometry.

[3] = target: T2, CD3 on purified human T cells (human, UniProt P07766 23-207); experiment: flow cytometry on purified human T cells, mouse anti-FLAG mAb then PE goat anti-mouse Ig F(ab')2
T2 construct: whole, on cells; also called CD3/TCR complex
T2 sequence (P07766 23-207): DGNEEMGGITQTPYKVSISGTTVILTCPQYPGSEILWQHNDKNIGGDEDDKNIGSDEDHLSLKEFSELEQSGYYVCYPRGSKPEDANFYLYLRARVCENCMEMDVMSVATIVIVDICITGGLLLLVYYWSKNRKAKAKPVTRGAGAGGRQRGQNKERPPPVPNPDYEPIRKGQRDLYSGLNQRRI
From the text: (Jackson ImmunoResearch, West Grove, Pa.) Ten thousand events were collected and analyzed on a FACSCalibur instrument (Becton Dickinson, Mountain View, Calif.).
To verify binding of the bi-scFv to human CD3 molecules, we used purified human T cells.

[4] = target: T1, GPNMB (CG56972), native full-length …; experiment: cell-based or functional assay; remark: listed apart in the source
[5] = target: T1, GPNMB (CG56972), native full-length …; experiment: cell-based or functional assay; remark: listed apart in the source
[6] = target: T1, GPNMB (CG56972), native full-length …; experiment: cell-based or functional assay; remark: listed apart in the source
[7] = target: T1, GPNMB (CG56972), native full-length …; experiment: cell-based or functional assay; remark: listed apart in the source
[8] = target: T1, GPNMB (CG56972), native full-length …; experiment: cell-based or functional assay; remark: listed apart in the source

Geo Mean Ratio (relative to pK16) [2]: 2.6
B1: Mab2.10.2 (antibody, human IgG2, V domains shown)
VH: QLVESGGGVVQPGRSLRLSCAASGFAFSSYGMHWVRQAPGKGLEWVAVISYDGNNKYYADSVKGRFTISRDNSKNTLYLQMNSLRAEDTAVYYCARDLVVRGIRGYYYYFGMDVWGQGTTVTVSS
VL: not shown
notes: Human IgG2 kappa from XenoMouse XMG2; also called CR011.2.10.2
killing of UACC-62 cells with saporin-conjugated secondary antibody, clonogenic, Ab 50 ng/mL [1]: > 70%

binding result [3]: no binding (tested: 5 µg/sample/100 µl)
B3: CR011 scFv (VL-L4-VH) Flag (scFv)
scFv: EIVMTQSPATLSVSPGERATLSCRASQSVDNNLVWYQQKPGQAPRLLIYGASTRATGIPARFSGSGSGTEFTLTISSLQSEDFAVYYCQQYNNWPPWTFGQGTKVEIKLSADDAKKDAAKKDDAKKDDAKKDLQVQLQESGPGLVKPSQTLSLTCTVSGGSISSFNYYWSWIRHHPGKGLEWIGYIYYSGSTYSNPSLKSRVTISVDTSKNQFSLTLSSVTAADTAVYYCARGYNWNYFDYWGQGTLVTVSSASDYKDDDDK
notes: C-terminal Flag tag is within the entry; also called CR011 single chain antibody; CR011 scFv monomer

Geo Mean Ratio (relative to pK16) [2]: 4.46
B6: Mab2.22.1 (antibody, human IgG2, V domains shown)
VH: QVQLEQSGPGLVKPSQNLSLTCTVSGGSISSGGYFWSWIRQHPGKGLEWIGYIYYSGNTYYNPSLKSRVTISVDTSKNQFSLKLSSVTAADTAVYYCARDYYYDTSGFSYRYDWYYGMDVWGQGTTVTVSS
VL: DIQLTQSPSSLSASVGDRVTITCRASQGIRNDLGWYQQKPGKAPKRLIYAASSLQNGVPSRFSGSGSGTEFTLTISSLQPEDFATYYCLQHNTYPAFGQGTKVEIKR
notes: Human IgG2 kappa from XenoMouse XMG2; also called CR011.2.22.1
killing of UACC-62 cells with saporin-conjugated secondary antibody, clonogenic, Ab 50 ng/mL [1]: > 70%

The remaining lines, values behind:

B2: Mab1.2.2 (antibody, human IgG2, V domains shown)
VH: ITLKESGPTLVKPTQTLTLTCTFSGFSLSAGGVGVGWIRQPPGKALEWLALIYWNDDKRYSPSLRSRLTITKDTSKNQVVLTITNMDPVDTATYYCAHSHYDYDWGSYFDYWGQGTLVTVSS
VL: DIVMTQTPLSLPVTPGEPASISCRSSQSLLDSDDGNTYLDWYLQKPGQSPQLLIYTLSYRASGVPDRFSGSGSGTDFTLNISRVEAEDVGVYYCMQRIEFPITFGQGTRLEIKR
notes: Human IgG2 kappa from XenoMouse XMG2; also called CR011.1.2.2
Geo Mean Ratio (relative to pK16) [2]: 1.24

B4: CR011-vcMMAE (Mab1.15.1 conjugated to monomethylauristatin E through a valine-citrulline linker) (other)
heavy: QVQLQESGPGLVKPSQTLSLTCTVSGGSISSFNYYWSWIRHHPGKGLEWIGYIYYSGSTYSNPSLKSRVTISVDTSKNQFSLTLSSVTAADTAVYYCARGYNWNYFDYWGQGTLVTVSSASTKGPSVFPLAPCSRSTSESTAALGCLVKDYFPEPVTVSWNSGALTSGVHTFPAVLQSSGLYSLSSVVTVPSSNFGTQTYTCNVDHKPSNTKVDKTVERKCCVECPPCPAPPVAGPSVFLFPPKPKDTLMISRTPEVTCVVVDVSHEDPEVQFNWYVDGVEVHNAKTKPREEQFNSTFRVVSVLTVVHQDWLNGKEYKCKVSNKGLPAPIEKTISKTKGQPREPQVYTLPPSREEMTKNQVSLTCLVKGFYPSDIAVEWESNGQPENNYKTTPPMLDSDGSFFLYSKLTVDKSRWQQGNVFSCSVMHEALHNHYTQKSLSLSPGK
VL: not shown
modifications: vcMMAE on cysteines of reduced disulfides, about 4 drugs per antibody (3.5-4.2); positions not given
IC50, clonogenic assay with 1.15.1-AE, G361 cells [4]: 1050 ng/mL and 6500 pM
IC50, clonogenic assay with 1.15.1-AE, RPMI-7951 cells [4]: 972 ng/mL and 6000 pM
IC50, clonogenic assay with 1.15.1-AE, SK-Mel 2 cells [4]: 111 ng/mL and 750 pM
IC50, clonogenic assay with 1.15.1-AE, SK-Mel 5 cells [4]: 237 ng/mL and 1600 pM
IC50, clonogenic assay with 1.15.1-AE, UACC-62 cells [4]: 697 ng/mL and 4300 pM
IC50, clonogenic assay with 1.15.1-AE, UACC-257 cells [4]: 825 ng/mL and 5500 pM
IC50, clonogenic assay with 1.15.1-AE, WM-266-4 cells [4]: 345 ng/mL and 2300 pM
IC50, clonogenic assay with 1.15.1-AE, SR cells [5]: 296 ng/mL and 2000 pM
IC50, clonogenic assay with 1.15.1-AE, THP-1 cells [5]: 207 ng/mL and 1400 pM
IC50, clonogenic assay with 1.15.1-AE, U937 cells [5]: 340 ng/mL and 2400 pM
CR011-AE IC50, clonogenic assay, SF-268 cells (poor expression) [6]: > 1500 ng/mL
CR011-AE IC50, clonogenic assay, SF-539 cells [6]: 1030 ng/mL
CR011-AE IC50, clonogenic assay, SK-MEL-2 cells [6]: 303 ng/mL
CR011-AE IC50, clonogenic assay, SNB-78 cells [6]: 449 ng/mL
CR011-AE IC50, clonogenic assay, U-118-MG cells [6]: 1250 ng/mL
CR011-AE IC50, clonogenic assay, XF-498 cells [6]: 216 ng/mL
IC50 of colony formation (% of control), clonogenic assay after 96 h treatment of HEK293 cells transfected with GPNMB; the same conjugate on empty-vector cells prints >1000 [7]: 300 ng/mL
IC50 of colony formation (% of control), clonogenic assay, SK-Mel-2 cells with GPNMB knocked down by GPNMB siRNA [8]: 1000 ng/mL
IC50 of colony formation (% of control), clonogenic assay, control-siRNA-transfected SK-Mel-2 cells [8]: 220 ng/mL
IC50 of colony formation (% of control), clonogenic assay, mock-transfected SK-Mel-2 cells [8]: 330 ng/mL

B5: Mab1.15.1 (CR011), fully human IgG2 (antibody)
heavy: B4 heavy
VL: not shown
killing of UACC-62 cells with saporin-conjugated secondary antibody, clonogenic, Ab 50 ng/mL [1]: > 70%
